Values joined by “and” are separate entries in the source; they are usually repeats but may differ in a detail not shown here. Equal entries are not always repeated.

The values that follow come from publication PMC3192115, “Analysis of RNA Binding by the Dengue Virus NS5 RNA Capping Enzyme”.

Data set [1] concerns the target T1, NS5 capping enzyme WT (West Nile) (West Nile virus) (UniProt Q9Q6P4).
T1 sequence: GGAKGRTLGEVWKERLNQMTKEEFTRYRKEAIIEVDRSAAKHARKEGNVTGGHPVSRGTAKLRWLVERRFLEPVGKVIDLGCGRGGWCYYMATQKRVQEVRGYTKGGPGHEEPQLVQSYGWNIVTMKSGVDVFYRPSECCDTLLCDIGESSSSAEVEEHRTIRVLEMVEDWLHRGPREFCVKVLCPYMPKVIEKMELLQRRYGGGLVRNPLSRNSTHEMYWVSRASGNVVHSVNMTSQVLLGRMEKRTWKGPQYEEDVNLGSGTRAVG
The data set can be described thus: fluorescence polarization. The note with it: 5' diphosphate.

For data set [2], the target named is T2, NS5 N-terminal capping enzyme WT (dengue 2) (Dengue virus type 2, UniProt P29990 2492-2758). The data set can be described thus: fluorescence polarization. The note with it: protein: recombinant; tags: His; label: 3' FAM. A general note: In fluorescence polarisation assays a small probe gives low polarisation when free and higher when bound to something large.
T2 sequence (P29990 2492-2758): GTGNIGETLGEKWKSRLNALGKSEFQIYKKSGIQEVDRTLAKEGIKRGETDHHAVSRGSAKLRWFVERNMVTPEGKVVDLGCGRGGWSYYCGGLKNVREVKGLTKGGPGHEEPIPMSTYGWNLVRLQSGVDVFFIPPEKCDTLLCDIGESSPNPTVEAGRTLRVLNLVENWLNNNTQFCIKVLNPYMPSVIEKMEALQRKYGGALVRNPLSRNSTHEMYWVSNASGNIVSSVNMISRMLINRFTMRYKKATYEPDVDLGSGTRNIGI

Data set [3] addresses NS5 capping enzyme WT (yellow fever) (Yellow fever virus, UniProt P03314 2507-2774). The data set can be described thus: fluorescence polarization. The note with it: protein: recombinant; label: 3' FAM.
In data set [4] the target is T2, NS5 N-terminal capping enzyme WT …. The data set can be described thus: fluorescence polarization; mock control for GTP experiment. The note with it: protein: recombinant; tags: His; label: 3' FAM.
Data set [5] shares this target. The experiment in a line: fluorescence polarization; Table 1 gives 3.7 uM, SD 217 nM. Conditions: protein: recombinant; tags: His; label: 3' FAM.

NS5 capping enzyme WT (yellow fever), sequence (P03314 2507-2774): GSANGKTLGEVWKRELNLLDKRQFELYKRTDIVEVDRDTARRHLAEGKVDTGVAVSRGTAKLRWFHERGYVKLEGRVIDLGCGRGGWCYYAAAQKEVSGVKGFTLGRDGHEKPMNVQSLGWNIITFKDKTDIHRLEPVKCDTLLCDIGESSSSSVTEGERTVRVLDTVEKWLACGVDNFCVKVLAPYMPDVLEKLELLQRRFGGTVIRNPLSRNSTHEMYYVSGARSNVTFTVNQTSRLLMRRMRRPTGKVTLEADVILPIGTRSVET

Consider AGUAA [ppAGUAA-FAM], for which, in data set [1], the Kd (usually the free concentration of one partner at which half of the binding sites on the other are occupied at equilibrium, for simple one-to-one binding) amounted to 136 nM.

For AGUAA (ssRNA, 5' monophosphate) [pAGUAA-FAM], in data set [2], the Kd is 967 ± 88 nM.

Regarding AGUAA (ssRNA, 5' diphosphate) [ppAGUAA-FAM], the Kd in data set [3] was 420 ± 20 nM; in data set [2] it was 187 nM and ~200 nM.

On to AGUAA (ssRNA, no 5' phosphate) [AGUAA-FAM], for which the Kd in data set [4] worked out at 3500 nM; in data set [5], 3800 ± 200 nM.
